For one substance, RLU results are on record in US20110129854A1.

The target of test [1] is human cardiac troponin-I-T-C complex (human) (UniProt P63316). The experiment in a line: sandwich chemiluminescent immunoassay (…); detection 7G7 conjugate 30 ng/mL, capture M8020207 microparticles; cTnITC standard, 7 pM cTnT.
Test [2] has as its target Cardiac troponin-T (human) (UniProt P45379). Put plainly: sandwich chemiluminescent immunoassay (…); detection 7G7 conjugate, capture 7F4 microparticles; cTnT 0 ug/mL (blank).
Test [3] deals with human cardiac troponin-I-T-C complex (human) (UniProt P63316). The experiment in a line: sandwich chemiluminescent immunoassay (…); detection 7G7 conjugate, capture M8020207 microparticles; human plasma spiked with cTnITC, nominal 42 pM cTnT as labelled in the table.
The target of test [4] is Cardiac troponin-T (human) (UniProt P45379). The experiment in a line: sandwich chemiluminescent immunoassay (…); detection 7G7 conjugate, capture M8020207 microparticles; cTnT 0 ug/mL (blank).
The target is the same in test [5]. The experiment in a line: sandwich chemiluminescent immunoassay (…); detection 7G7 conjugate, capture 1C11 microparticles; cTnT 0.5 ug/mL.
The target is the same in test [6]. Put plainly: sandwich chemiluminescent immunoassay (…); detection 7G7 conjugate, capture 1C11 microparticles; cTnT 1 ug/mL.
Test [7] addresses human cardiac troponin-I-T-C complex (human) (UniProt P63316). Put plainly: sandwich chemiluminescent immunoassay (…); detection 7G7 conjugate 30 ng/mL, capture M8020207 microparticles; cTnITC standard, 42 pM cTnT.
Test [8] shares this target. The experiment in a line: sandwich chemiluminescent immunoassay (…); detection 7G7 conjugate 30 ng/mL, capture M8020207 microparticles; cTnITC standard, 0 pM cTnT (blank).
For test [9], the target named is Cardiac troponin-T (human) (UniProt P45379). Put plainly: sandwich chemiluminescent immunoassay (…); detection 7G7 conjugate, capture M8020207 microparticles; cTnT 0.5 ug/mL.
Test [10] has the same target. The experiment in a line: sandwich chemiluminescent immunoassay (…); detection 7G7 conjugate, capture M8020207 microparticles; cTnT 0.25 ug/mL.
Test [11] has the same target. Put plainly: sandwich chemiluminescent immunoassay (…); detection 7G7 conjugate, capture 7F4 microparticles; cTnT 1 ug/mL.
For test [12] the target is unchanged. Put plainly: sandwich chemiluminescent immunoassay (…); detection 7G7 conjugate, capture 7F4 microparticles; cTnT 2 ug/mL.
The target of test [13] is human cardiac troponin-I-T-C complex (human) (UniProt P63316). Put plainly: sandwich chemiluminescent immunoassay (…); detection 7G7 conjugate, capture M8020207 microparticles; human plasma spiked with cTnITC, nominal 7 pM cTnT.
Test [14] deals with Cardiac troponin-T (human) (UniProt P45379). Put plainly: sandwich chemiluminescent immunoassay (…); detection 7G7 conjugate, capture M8020207 microparticles; cTnT 1 ug/mL.
Test [15] shares this target. Put plainly: sandwich chemiluminescent immunoassay (…); detection 7G7 conjugate, capture M8020207 microparticles; cTnT 2 ug/mL.
Test [16] has the same target. Put plainly: sandwich chemiluminescent immunoassay (…); detection 7G7 conjugate, capture 7F4 microparticles; cTnT 0.25 ug/mL.
Test [17] deals with human cardiac troponin-I-T-C complex (human) (UniProt P63316). The experiment in a line: sandwich chemiluminescent immunoassay (…); detection 7G7 conjugate 30 ng/mL, capture M8020207 microparticles; cTnITC standard, 279 pM cTnT.
Test [18] addresses Cardiac troponin-T (human) (UniProt P45379). The experiment in a line: sandwich chemiluminescent immunoassay (…); detection 7G7 conjugate, capture 7F4 microparticles; cTnT 0.5 ug/mL.
In test [19] the target is human cardiac troponin-I-T-C complex (human) (UniProt P63316). The experiment in a line: sandwich chemiluminescent immunoassay (…); detection 7G7 conjugate, capture M8020207 microparticles; negative human plasma without spiked cTnITC (blank).
For test [20] the target is unchanged. Put plainly: sandwich chemiluminescent immunoassay (…); detection 7G7 conjugate 30 ng/mL, capture M8020207 microparticles; cTnITC standard, 14 pM cTnT.
Test [21] has as its target Cardiac troponin-T (human) (UniProt P45379). Put plainly: sandwich chemiluminescent immunoassay (…); detection 7G7 conjugate, capture 1C11 microparticles; cTnT 0.25 ug/mL.
For test [22] the target is unchanged. The experiment in a line: sandwich chemiluminescent immunoassay (…); detection 7G7 conjugate, capture 1C11 microparticles; cTnT 2 ug/mL.
Test [23] shares this target. The experiment in a line: sandwich chemiluminescent immunoassay (…); detection 7G7 conjugate, capture 1C11 microparticles; cTnT 0 ug/mL (blank).

“Murine anti-cardiac troponin-T 7G7 acridinium-9-carboxamide conjugate (antibody)”: the RLU in test [1] turned out to be 15300 RLU; in [2] it was 333 RLU; in [3], 74100 RLU; in test [4], 338 RLU; in test [5] it was 149000 RLU; in test [6], 238000 RLU. Moreover, the RLU in test [7] came to 81500 RLU; in [8], 2370 RLU; in test [9] it was 164000 RLU; in test [10] it was 96200 RLU; in test [11], 29900 RLU; in test [12] it was 46800 RLU. In addition, the RLU in test [13] came to 13800 RLU; in test [14], 251000 RLU; in test [15], 305000 RLU; in [16], 9080 RLU; in test [17], 423000 RLU; in test [18], 17200 RLU. In addition, the RLU stood at 2070 RLU in test [19]; 28100 RLU in [20]; 79400 RLU in test [21]; 311000 RLU in test [22]; 317 RLU in test [23].
